Assay [1] has as its target CD25人源化单抗 (Zenapax, ROCHE公司产品). The experiment in a line: sandwich ELISA, 5G7 coated at 1 μg/ml, Zenapax titrated, HRP anti-human IgG Fc gamma detection. In general terms: In an ELISA, binding on a coated surface is turned into a signal by an enzyme label.
The target in assay [2] is CD25人源化单抗 (Zenapax, ROCHE公司产品). Put plainly: sandwich ELISA, compared with the commercial anti-kappa capture antibody.

B1: 重组抗CD25人源化单克隆抗体的抗体 5G7 (antibody, V domains shown)
VH: EVKLEESGGGLEQPGGSMKLSCVASGFTFSNYWMNWVRQSPDKGLEWVAQIRWKSDNYATHYAESVKGRFSISRDDSKSSVYLQMNNLRVEDSGIYYCTGGGSYVAHWGQGTLVTVSA
VL: DIVLTQSPASLAVSLGQSVTVSCRASESVENYGTTLMQWYQQKPGQPPKLLIYGVSNVESGVPARFSGSGSGTDFTLNIHPVEEDDIAMYFCQQSRKVPWTFGGGTKLEIKR
B1: the 灵敏度 (detection sensitivity) in assay [1] was 0.01 ng/mL. In addition, the 灵敏度 fold against 市售抗体 in assay [2] was determined as 100 fold.
